# According to patent publication EP3741773A1:
# Molecular target: meditope-enabled trastuzumab Fab fragment
# Assay: SPR
# meditope-enabled trastuzumab Fab fragment, sequence (chain, as listed by the source, chain 1 of 2): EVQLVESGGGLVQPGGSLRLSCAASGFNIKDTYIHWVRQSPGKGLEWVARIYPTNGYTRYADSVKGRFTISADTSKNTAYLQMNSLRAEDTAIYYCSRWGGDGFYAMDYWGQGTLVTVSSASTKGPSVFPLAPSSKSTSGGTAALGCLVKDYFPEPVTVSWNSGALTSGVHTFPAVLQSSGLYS
# meditope-enabled trastuzumab Fab fragment, sequence (chain, as listed by the source, chain 2 of 2): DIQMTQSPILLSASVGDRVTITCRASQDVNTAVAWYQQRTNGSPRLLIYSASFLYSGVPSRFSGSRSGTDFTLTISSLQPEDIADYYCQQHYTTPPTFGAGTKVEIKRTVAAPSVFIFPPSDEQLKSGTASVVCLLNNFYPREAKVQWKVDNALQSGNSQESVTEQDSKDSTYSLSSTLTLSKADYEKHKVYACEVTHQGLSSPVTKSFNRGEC
binder,measurement,value
CQFDLSTRRLKC (modifications not checked) [cQFD meditope],Kd,1000 nM
